The target in experiment [1] is T1, recombinant hemagglutinin B/Brisbane/2008, full-length construct (full-length soluble ectodomain, FLsE) (influenza B virus B/Brisbane/60/2008, UniProt C0LT35, strain).
T1 construct: also called B/Brisbane/60/2008; B/Vic
Briefly: multiplex bead assay (Luminex). The following applies: one partner purified.

For experiment [2], the target named is T2, recombinant hemagglutinin B/Brisbane/2008, head construct (trimeric, head-only) (influenza B virus B/Brisbane/60/2008, UniProt C0LT35, strain).
T2 construct: also called rHA head
Briefly: multiplex bead assay (Luminex). The following applies: one partner purified.

Results on 1 molecule are retold here after PMC9765176, “Infant Antibody Repertoires during the First Two Years of Influenza Vaccination” (mBio, 2022).

B1: year 2 postvaccination Bmem BCR of infant 1, clonally related to the most abundant IBV HA-specific plasma IgG clonotype (antibody, V domains shown)
VH: EVQLVESGGGLVQPGGSLRLSCAASGFTFRSYEMNWVRQAPGKGLEWISYISGSGGTIYYADSVKGRFTISRDNARNSLYLQMNSLRAEDTAVYYCARDLRGIGDYWGQGTLVTVSS
VL: SSELTQDPAVSVALGQTVRITCQGDSLRSYYASWYQQKPGQAPVLVIYGESNRPSGIPDRFSGSSSGNTASLTITGAQAEDEADYYCNSRDNSGNLYVFGSGTKVTVL
As to B1, the values for the binding result in experiment [1] and in experiment [2] were “binds” and “no binding”, respectively.
